# In patent publication US20060148030A1, “Nuclear receptor err y 3” (FUJISAWA PHARMACEUTICAL CO., LTD, priority 2002, published 2006):
# T1: PPARβ (Homo sapiens, UniProt Q03181)
# T1 construct: expressed in transfected cells; host or cells: CV-1 (African green monkey kidney)
# T1 sequence (Q03181 1-441): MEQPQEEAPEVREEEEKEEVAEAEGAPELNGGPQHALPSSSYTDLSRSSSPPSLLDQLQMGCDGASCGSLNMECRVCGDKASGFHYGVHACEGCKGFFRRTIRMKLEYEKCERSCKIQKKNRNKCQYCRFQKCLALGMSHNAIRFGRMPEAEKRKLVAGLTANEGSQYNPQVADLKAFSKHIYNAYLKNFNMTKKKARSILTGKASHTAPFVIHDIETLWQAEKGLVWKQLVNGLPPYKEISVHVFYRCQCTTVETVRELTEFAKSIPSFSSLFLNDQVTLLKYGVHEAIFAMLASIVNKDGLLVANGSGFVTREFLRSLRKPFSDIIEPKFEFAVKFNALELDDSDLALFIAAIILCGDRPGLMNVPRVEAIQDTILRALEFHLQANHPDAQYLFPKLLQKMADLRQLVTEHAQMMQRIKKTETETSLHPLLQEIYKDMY
# T1 sequence (P19793 1-462 partner): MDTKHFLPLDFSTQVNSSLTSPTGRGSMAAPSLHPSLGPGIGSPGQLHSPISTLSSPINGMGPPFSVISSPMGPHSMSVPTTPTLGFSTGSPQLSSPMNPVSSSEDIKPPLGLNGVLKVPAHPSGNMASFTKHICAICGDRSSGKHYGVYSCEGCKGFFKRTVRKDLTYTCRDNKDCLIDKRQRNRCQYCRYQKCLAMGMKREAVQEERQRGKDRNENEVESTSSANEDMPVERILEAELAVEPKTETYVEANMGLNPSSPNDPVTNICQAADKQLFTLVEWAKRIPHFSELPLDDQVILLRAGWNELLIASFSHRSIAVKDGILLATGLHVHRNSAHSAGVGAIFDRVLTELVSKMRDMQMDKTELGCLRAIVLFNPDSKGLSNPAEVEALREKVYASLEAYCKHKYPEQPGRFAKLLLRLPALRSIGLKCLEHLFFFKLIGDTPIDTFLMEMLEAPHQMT
# Biological target: T1, PPARβ
# Experiment: Reporter gene assay, ERRγ3 coexisted with PPARβ, pGVP2-PPRE1 in CV-1 cells
# Format: cell-based
# Conditions: 10^−5 M carbacyclin, FIG. 24
# Procedure: Transfection was performed as follows: CV-1 cells were resuspended in DMEM supplemented with 10% fetal bovine serum, 2000 U/l of penicillin G, and 100 mg/l of streptomycin to a concentration of 2×10^5 cells/2.5 ml. This was then seeded to a 6-well plate at 2.5 ml per well, and incubated for 18-24 hours in a CO2 incubator at 37° C. and 5% CO2. 1 μg of each of the expression plasmids for the transcription factors, the luciferase reporter plasmid, and another luciferase reporter plasmid used for normalization of the measured values (pRL-TK), were dissolved in Opti-MEM (Gibco BRL), to a total of 150 μl. […] Luciferase activity was measured using the Dual-Luciferase™ Reporter Assay System (Promega). […] The protocol for measurement was as follows: 50 μl of Luciferase Assay Reagent II was added to each well, stirred for 0.3 seconds, and measured for one second. 50 μl of Stop&Glo™ Reagent was then added, stirred for 0.3 seconds, and measured for one second. The measured values for firefly luciferase activity were corrected by dividing by the value for the Renilla luciferase activity, the internal control. Average values and standard errors were calculated from triplicate samples.
# The effect of ligands on the function of ERRγ3 in enhancing the transcriptional activation function of peroxisome proliferator activated receptor (PPAR) α, β, or γ was evaluated using the reporter gene assay (FIG. 24). […]
molecule,measurement,value
"ERRγ3: novel ERRγ isoform, nuclear receptor protein of 396 amino acids (SEQ ID NO: 2) lacking part of the DNA binding domain (protein, listed as Homo sapiens) MSNKDRHIDSSCSSFIKTEPSSPASLTDSVNHHSPGGSSDASGSYSSTMNGHQNGLDSPPLYPSAPILGGSGPVRKLYDDCSSTIVEDPQTKCEYMLNSMPKRLCLVCGDIASGYHYGVASCEACKAFFKRTIQGVRLDRVRGGRQKYKRRIDAENSPYLNPQLAQPAKKPYNKIVSHLLVAEPEKIYAMPDPTVPDSDIKALTTLCDLADRELVVIIGWAKHIPGFSTLSLADQMSLLQSAWMEILILGVVYRSLSFEDELVYADDYIMDEDQSKLAGLLDLNNAILQLVKKYKSMKLEKEEFVTLKAIALANSDSMHIEDVEAVQKLQDVLHEALQDYEAGQHMEDPRRAGKMLMTLPLLRQTSTKAVQHFYNIKLEGKVPMHKLFLEMLEAKV",modifying effect on the transcriptional stimulation activity of PPARβ,did not show any significant modifying effect
